Test results published in patent publication US20240084003A1 (SIMCERE ZAIMING PHARMACEUTICAL, published 2024).

Key:
[1] = target: T1, murine CD22 protein (ACROBiosystems, SI2-M52Ha) (murine, UniProt P35329 22-708); assay: ELISA, coated murine CD22, 100 nM Ab
T1 construct: extracellular domain; also called murine CD22-ECD; murine CD22-ECD-His
T1 sequence (looked up): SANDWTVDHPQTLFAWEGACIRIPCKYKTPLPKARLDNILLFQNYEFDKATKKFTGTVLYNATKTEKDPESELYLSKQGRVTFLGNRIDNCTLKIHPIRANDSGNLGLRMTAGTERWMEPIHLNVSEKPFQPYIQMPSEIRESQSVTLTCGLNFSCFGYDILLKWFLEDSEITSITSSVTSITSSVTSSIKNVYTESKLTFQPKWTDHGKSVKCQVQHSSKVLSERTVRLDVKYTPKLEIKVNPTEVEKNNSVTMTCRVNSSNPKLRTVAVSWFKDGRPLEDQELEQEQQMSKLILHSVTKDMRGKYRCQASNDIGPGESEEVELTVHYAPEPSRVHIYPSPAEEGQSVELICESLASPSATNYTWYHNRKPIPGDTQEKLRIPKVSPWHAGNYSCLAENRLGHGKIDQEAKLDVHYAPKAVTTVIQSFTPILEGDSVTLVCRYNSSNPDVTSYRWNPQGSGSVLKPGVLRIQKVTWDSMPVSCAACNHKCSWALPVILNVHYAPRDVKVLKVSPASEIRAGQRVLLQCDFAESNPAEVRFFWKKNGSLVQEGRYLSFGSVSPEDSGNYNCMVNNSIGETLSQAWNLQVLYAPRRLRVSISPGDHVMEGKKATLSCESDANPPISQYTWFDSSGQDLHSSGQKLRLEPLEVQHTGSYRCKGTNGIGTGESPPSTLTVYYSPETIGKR
Protocol: (§1) In order to detect the binding activity of CD22 human-murine chimeric antibodies to CD22 protein, the purified human CD22-ECD-His protein obtained in Example 2 was diluted with PBS to a final concentration of 2 μg/mL, and then added to 96-well ELISA plate at 100 μl/well. The plate was sealed with plastic film and incubated overnight at 4° C., the plate was washed 2 times with PBS the next day, and then a blocking solution [PBS+2% (w/w) BSA] was added for blocking at room temperature for 2 hours. […] After incubation at 37° C. for 2 hours, the plate was washed 3 times with PBS. HRP (horseradish peroxidase)-labeled secondary antibody (purchased from Sigma, catalog number: A0170) was added, and incubated at 37° C. for 2 hours, and the plate was washed 5 times with PBS. TMB substrate was added at 50 μl/well, and incubated at room temperature for 30 minutes, then a stop solution (1.0 N HCl) was added at 50 μl/well.
(§2) In order to detect the species cross-binding activity of the chimeric antibodies, an ELISA plate was coated with commercial murine CD22 protein (ACROBiosystems, catalog number: SI2-M52Ha) and monkey CD22 protein (ACROBiosystems, catalog number: SI2-R52Ha), respectively, and the ELISA detection was performed according to the method in Example 5.1.

[2] = target: T1, murine CD22 protein (ACROBiosystems, …); assay: ELISA, coated murine CD22, 0.001 nM Ab
Protocol: as §1, §2

[3] = target: T1, murine CD22 protein (ACROBiosystems, …); assay: ELISA, coated murine CD22, 0.0001 nM Ab
Protocol: as §1, §2

[4] = target: T2, human CD22, full length, on CHO-K1-human CD22 2C4 cells (human, UniProt P20273 20-847); assay: FACS, CHO-K1-human CD22 2C4 cells
T2 construct: Full-length human CD22 (NCBI NP_001762.2) stably transfected into CHO-K1
T2 sequence: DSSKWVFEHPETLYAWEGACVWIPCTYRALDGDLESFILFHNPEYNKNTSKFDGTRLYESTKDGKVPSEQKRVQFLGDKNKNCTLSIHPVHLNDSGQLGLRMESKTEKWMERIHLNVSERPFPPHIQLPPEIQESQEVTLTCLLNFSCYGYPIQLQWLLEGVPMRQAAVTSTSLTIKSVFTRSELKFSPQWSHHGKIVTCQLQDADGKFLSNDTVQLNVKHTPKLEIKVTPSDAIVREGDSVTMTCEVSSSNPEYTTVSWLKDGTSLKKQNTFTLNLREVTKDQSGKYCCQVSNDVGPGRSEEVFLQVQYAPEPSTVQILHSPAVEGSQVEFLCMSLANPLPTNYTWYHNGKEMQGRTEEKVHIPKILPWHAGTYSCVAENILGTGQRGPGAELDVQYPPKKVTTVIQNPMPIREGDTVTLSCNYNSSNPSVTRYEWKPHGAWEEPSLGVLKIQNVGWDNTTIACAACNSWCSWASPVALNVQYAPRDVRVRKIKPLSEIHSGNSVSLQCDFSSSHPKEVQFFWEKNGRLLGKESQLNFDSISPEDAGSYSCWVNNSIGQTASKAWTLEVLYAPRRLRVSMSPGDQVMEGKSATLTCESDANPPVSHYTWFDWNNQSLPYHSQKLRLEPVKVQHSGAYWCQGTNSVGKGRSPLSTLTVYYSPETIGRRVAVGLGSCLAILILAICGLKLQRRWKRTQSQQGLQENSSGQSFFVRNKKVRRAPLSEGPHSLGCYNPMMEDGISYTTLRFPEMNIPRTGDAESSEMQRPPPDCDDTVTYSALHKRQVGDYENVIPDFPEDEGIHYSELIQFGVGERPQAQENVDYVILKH
Source text: (§3) The required cells were scale-up cultured in a T-75 cell culture flask to the logarithmic growth phase. For the adherent cell CHO-K1, the medium was aspirated, the cells were washed 2 times with PBS buffer, and then digested with trypsin. After the digestion was terminated, the cells were washed 2 times with PBS buffer. For suspension cell Raji, the medium supernatant was directly centrifuged and discarded, and the cell pellet was washed 2 times with PBS. After counting the cells in the previous step, the cell pellet was resuspended with [PBS+2% (w/w) BSA] blocking solution to 2×10⁶ cells/ml, and added to a 96-well FACS reaction plate at 50 μl/well, and then the chimeric antibody test sample was added at 50 μl/well, and incubated on ice for 2 hours. The mixture was centrifuged and washed 3 times with PBS buffer, Alexa Flour 488-labeled secondary antibody (purchased from Invitrogen, catalog number: A-11013) was added at 50 μl/well, and incubated on ice for 1 hour. The obtained mixture was centrifuged and washed 5 times with PBS, and FACS (FACS Canto™, purchased from BD Company) was used for detection and result analysis. Data analysis was performed by software (CellQuest) to obtain the mean fluorescence density (MFI)of the cells. And then software (GraphPad Prism8) was used for analysis, data fitting, and EC50 value calculation. […] The same method was used to detect the binding of the chimeric antibodies to endogenous CD22-negative cell MoLT4 cells (purchased from ATCC, CRL-1582) and CHO-K1 cells.

[5] = target: T1, murine CD22 protein (ACROBiosystems, …); assay: ELISA, coated murine CD22, 0.01 nM Ab
Protocol: as §1, §2

[6] = target: T1, murine CD22 protein (ACROBiosystems, …); assay: ELISA, coated murine CD22, 0.1 nM Ab
Protocol: as §1, §2

[7] = target: T1, murine CD22 protein (ACROBiosystems, …); assay: ELISA, coated murine CD22, 10 nM Ab
Protocol: as §1, §2

[8] = target: T1, murine CD22 protein (ACROBiosystems, …); assay: ELISA, coated murine CD22, 0.00001 nM Ab
Protocol: as §1, §2

[9] = target: T3, human CD22, endogenous on Raji cells (human, UniProt P20273 20-847); assay: FACS, Raji cells
T3 construct: whole, on cells; Endogenous protein of the Raji cell line
T3 sequence (looked up): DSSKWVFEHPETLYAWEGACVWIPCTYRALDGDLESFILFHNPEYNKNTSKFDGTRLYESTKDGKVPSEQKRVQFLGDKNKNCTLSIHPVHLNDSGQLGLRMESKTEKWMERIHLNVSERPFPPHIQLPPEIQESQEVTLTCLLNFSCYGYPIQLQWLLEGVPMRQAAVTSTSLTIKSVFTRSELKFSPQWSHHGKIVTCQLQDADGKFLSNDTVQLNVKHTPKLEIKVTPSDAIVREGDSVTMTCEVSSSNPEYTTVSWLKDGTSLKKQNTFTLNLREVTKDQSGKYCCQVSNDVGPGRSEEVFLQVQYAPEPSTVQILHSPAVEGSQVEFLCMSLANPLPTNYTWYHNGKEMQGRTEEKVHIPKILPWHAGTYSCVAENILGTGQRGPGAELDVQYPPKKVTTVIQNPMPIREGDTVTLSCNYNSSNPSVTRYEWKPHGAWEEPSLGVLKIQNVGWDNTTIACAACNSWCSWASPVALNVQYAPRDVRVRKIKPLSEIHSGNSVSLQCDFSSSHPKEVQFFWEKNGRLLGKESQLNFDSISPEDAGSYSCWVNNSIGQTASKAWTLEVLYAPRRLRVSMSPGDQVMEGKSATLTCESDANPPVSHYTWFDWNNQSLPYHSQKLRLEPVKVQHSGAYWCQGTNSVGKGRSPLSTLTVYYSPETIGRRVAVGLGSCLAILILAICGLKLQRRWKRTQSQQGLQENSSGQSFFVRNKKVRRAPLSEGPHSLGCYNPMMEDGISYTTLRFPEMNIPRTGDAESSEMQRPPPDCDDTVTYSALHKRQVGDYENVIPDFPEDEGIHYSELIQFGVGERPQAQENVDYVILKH
Source text: as §3

B1: F1.231.15 human-murine chimeric antibody (antibody, human IgG1, V domains shown)
VH: QVQLQQPGAELVKPGASVKLSCKTSGYTFTIYWMQWVKQRPGRGLEWIGRIDPHSGDTHYNENFTTKVTLTVDETSNTAYMHLSGLTSEDSAVYYCARRDYSYYVLDYWGQGTSVTVSS
VL: DVVLTQTPLSLPVSLGDQASISCRSSQSLVHINGDTYLHWYLQKPGQSPKLLIYTVFNRFSGVPDRFSGSGSGTDFTLKISRVEAEDLGAYFCSQSTHVPYTFGGGTKLEIKR
notes: Chimeric: murine V regions on human IgG1 heavy constant region and kappa light constant region
OD450 [1]: 0.06 OD450
OD450 [2]: 0.05 OD450
OD450 [3]: 0.05 OD450
EC50 [4]: 1.18 nM
Maximum mean fluorescence intensity [4]: 35400 MFI
OD450 [5]: 0.05 OD450
OD450 [6]: 0.05 OD450
OD450 [7]: 0.06 OD450
OD450 [8]: 0.06 OD450
EC50 [9]: 0.45 nM
Maximum mean fluorescence intensity [9]: 28800 MFI

B2: F1.7.6 human-murine chimeric antibody (antibody, human IgG1, kappa, V domains shown)
VH: EIQLQQSGPELVKPGTSVKVSCKASGYDFTRYNMYWVKQSHGKSLEWIGYIDPYNGDTRYNQKFKGKATLTVDKSSSTAYMHLNSLTSEDSAVYYCEAIYYDMEGYALDYWGQGTSVTVSS
VL: DIVMSQSPSSLAVSVGEKVTMSCKSSQSLLYSNNQKNYLAWYQQKPGQSPKKLIYWASTRESGVPDRLTGSGSGTDFTLTISSVTAEDLAVYYCQQFYSYPWTFGGGTKLEIKR
notes: Chimeric, human IgG1 / kappa; VL tied by name
OD450 [1]: 0.07 OD450
OD450 [2]: 0.06 OD450
OD450 [3]: 0.06 OD450
EC50 [4]: 0.63 nM
Maximum mean fluorescence intensity [4]: 29700 MFI
OD450 [5]: 0.06 OD450
OD450 [6]: 0.06 OD450
OD450 [7]: 0.06 OD450
OD450 [8]: 0.06 OD450
EC50 [9]: 0.23 nM
Maximum mean fluorescence intensity [9]: 25900 MFI

B3: F1.105.11 human-murine chimeric antibody (antibody, human IgG1, kappa, V domains shown)
VH: EVQLQQSGPVLVKPGASVKMSCKASGYTFSDYFMNWVKQSHGKSLEWIGIINSYSGGTSYNQKFKGKATLTVDKSSSTAYMELNSLTSEDSAVYYCARWMDYWGQGTSVTVSS
VL: DVQITQSPSYLAASPGETITINCRTSESISKHLAWYQEKPGKTNKLLIYSGSTLQSGIPSRFSGSGSGTDFTLTISSLEPEDFAMYYCQQHNEYPWTFGGGTKLEIKR
notes: as for B2
OD450 [1]: 0.08 OD450
OD450 [2]: 0.05 OD450
OD450 [3]: 0.05 OD450
EC50 [4]: 2.53 nM
Maximum mean fluorescence intensity [4]: 28300 MFI
OD450 [5]: 0.05 OD450
OD450 [6]: 0.05 OD450
OD450 [7]: 0.05 OD450
OD450 [8]: 0.05 OD450
EC50 [9]: 1.39 nM
Maximum mean fluorescence intensity [9]: 24400 MFI

B4: m971-hIgG1 (antibody, V domains shown)
VH: QVQLQQSGPGLVKPSQTLSLTCAISGDSVSSNSAAWNWIRQSPSRGLEWLGRTYYRSKWYNDYAVSVKSRITINPDTSKNQFSLQLNSVTPEDTAVYYCAREVTGDLEDAFDIWGQGTMVTVSS
VL: DIQMTQSPSSLSASVGDRVTITCRASQTIWSYLNWYQQRPGKAPNLLIYAASSLQSGVPSRFSGRGSGTDFTLTISSLQAEDFATYYCQQSYSIPQTFGQGTKLEIKR
notes: Positive control anti-human CD22 antibody; V regions from US 8,591,889 B on human IgG1 constant regions
OD450 [1]: 0.11 OD450
OD450 [2]: 0.06 OD450
OD450 [3]: 0.07 OD450
OD450 [5]: 0.07 OD450
OD450 [6]: 0.07 OD450
OD450 [7]: 0.08 OD450
OD450 [8]: 0.07 OD450

B5: F1.267.9 human-murine chimeric antibody (antibody, human IgG1, kappa, V domains shown)
VH: EVQLQQSGPVLVKPGASVKMSCKASGYTFTDFYMNWAKQSHGKSLEWVGVINPYNGGINYNQKFKGKATLTVDKSSSTAYMEFNSLTSEDSAVYYCARRMEYHAMDYWGQGTSVTVSS
VL: DIVLTQSPASLAVSLGQRATISCRASESVDNYGFDFIHWYQQKPGQPPKLLIYRASNLESGIPARFSGSGSRPDFTLTINPVETDDVATYYCQQSIKDPWTFGGGTKLEIKR
notes: as for B2
OD450 [1]: 0.07 OD450
OD450 [2]: 0.07 OD450
OD450 [3]: 0.07 OD450
EC50 [4]: 2.08 nM
Maximum mean fluorescence intensity [4]: 31200 MFI
OD450 [5]: 0.06 OD450
OD450 [6]: 0.06 OD450
OD450 [7]: 0.08 OD450
OD450 [8]: 0.07 OD450
EC50 [9]: 1.66 nM
Maximum mean fluorescence intensity [9]: 26700 MFI
